Assay [1] concerns the target Gp120 (HIV). Briefly: indirect ELISA; indirect ELISA. On the technique in general: ELISA stands for enzyme-linked immunosorbent assay.
Assay [2] addresses Gp120 (HIV). Briefly: ELISA.
Assay [3] concerns the target Gp120 (HIV). Briefly: direct ELISA; direct ELISA.

Substitutions are numbered along the chain they refer to. Names and notes keep the numbering of the source.

The source of these data is patent US20220289798A1 (published 2022).

B1: CK 20K (other)
chain: MSLTHRRFGGSGGSPFSGLSSIAVRSGSYLDAIIIDGVHHGGSGGNLSPTFTFGSGEYISNMTIRSGDYIDNISFETNQGRRFGPYGGSGGSANTLSNVRVIQINGSAGDYLDSLDIYYEQYK
modifications: 20,000 MW PEG coupled by NHS ester to a primary amine. The intended site is the added C-terminal Lys, pos 123, written K. At least one PEG per dimer. The exact site and number of PEGs are not determined.
For the molecule B1, the EC50 (as a rule, the concentration at which the effect is half-maximal) worked out at 14.1 ng/mL with Gp120 [1] and 90.5 ng/mL with Gp120 [2].

B2: CK (other)
chain: B1 chain
In turn, B2 returned an EC50 in the assay with Gp120 [2] of 10.5 ng/mL.

B3: CK 20K Direct (other)
chain: B1 chain
modifications: 20,000 MW PEG coupled by NHS ester to a primary amine. The intended site is the added C-terminal Lys, pos 123, written K. At least one PEG per dimer. The exact site and number of PEGs are not determined.
As for B3, the EC50 with Gp120 [3] worked out at 0.029 ng/mL.

B4: NK 20K Direct (other)
chain: MKSLTHRRFGGSGGSPFSGLSSIAVRSGSYLDAIIIDGVHHGGSGGNLSPTFTFGSGEYISNMTIRSGDYIDNISFETNQGRRFGPYGGSGGSANTLSNVRVIQINGSAGDYLDSLDIYYEQY
modifications: 20,000 MW PEG coupled by NHS ester to a primary amine. The intended site is the added N-terminal Lys, pos 2, written K; the N-terminal amine is also possible. At least one PEG per dimer. The exact site and number of PEGs are not determined.
As for B4, the response with Gp120 [3] was half-maximal at 0.0173 ng/mL (EC50). This EC50 is about 1.7-fold lower than that of the molecule before.

B5: NK 20K (other)
chain: B4 chain
modifications: 20,000 MW PEG coupled by NHS ester to a primary amine. The intended site is the added N-terminal Lys, pos 2, written K; the N-terminal amine is also possible. At least one PEG per dimer. The exact site and number of PEGs are not determined.
B5: a half-maximal effect with Gp120 [1] (EC50) was put at 26.4 ng/mL.

B6: NK 2K (other)
chain: B4 chain
modifications: 2,000 MW PEG coupled by NHS ester to a primary amine. The intended site is the added N-terminal Lys, pos 2, written K; the N-terminal amine is also possible. At least one PEG per dimer. The exact site and number of PEGs are not determined.
B6: the EC50 with Gp120 [1] is 7.45 ng/mL; in the assay with Gp120 [2], 60.8 ng/mL.

B7: NK (other)
chain: B4 chain
In the assay with Gp120 [2], B7 gave an EC50 of 15 ng/mL.

B8: NK 2K Direct (other)
chain: B4 chain
modifications: 2,000 MW PEG coupled by NHS ester to a primary amine. The intended site is the added N-terminal Lys, pos 2, written K; the N-terminal amine is also possible. At least one PEG per dimer. The exact site and number of PEGs are not determined.
Take B8: in the assay with Gp120 [3], the 50% effective concentration (EC50) was 0.0875 ng/mL.

B9: Q 20K (other)
chain: MSLTHRKFGGSGGSPFSGLSSIAVRSGSYLDAIIIDGVHHGGSGGNLSPTFTFGSGEYISNMTIRSGDYIDNISFETNQGRRFGPYGGSGGSANTLSNVKVIQINGSAGDYLDSLDIYYEQY
modifications: 20,000 MW PEG coupled by NHS ester to a primary amine. The candidate sites are Lys pos 7 and Lys pos 100, both written K. At least one PEG per dimer. The exact site and number of PEGs are not determined.
Take B9: the concentration giving a half-maximal response (EC50) is 16.3 ng/mL in the assay with Gp120 [1] and 33.6 ng/mL with Gp120 [2].

B10: Q (other)
chain: B9 chain
As for B10, a half-maximal response with Gp120 [2] (EC50) required 8.38 ng/mL.

B11: M78K20K Rx (other)
chain: B9 chain with K7R, Q79K, K100R
modifications: chain 1 pos 79: Lys carrying 20,000 MW PEG by NHS-ester amine coupling, written K. It is the only lysine in the chain. At least one PEG per dimer. The exact site and occupancy were not measured.
Molecule B11 displayed a 50% effective concentration (EC50) in the assay with Gp120 [3] of 0.0624 ng/mL.

B12: Q 20K Direct (other)
chain: B9 chain
modifications: 20,000 MW PEG coupled by NHS ester to a primary amine. The candidate sites are Lys pos 7 and Lys pos 100, both written K. At least one PEG per dimer. The exact site and number of PEGs are not determined.
On to B12, for which the EC50 with Gp120 [3] stood at 0.0355 ng/mL.

B13: M78K (other)
chain: B9 chain with K7R, Q79K, K100R
On to B13, for which the response with Gp120 [2] was half-maximal at 11.1 ng/mL (EC50).

B14: M78K 2K (other)
chain: B9 chain with K7R, Q79K, K100R
modifications: chain 1 pos 79: Lys carrying 2,000 MW PEG by NHS-ester amine coupling, written K. It is the only lysine in the chain. At least one PEG per dimer. The exact site and occupancy were not measured.
With B14, the results for the EC50 in the assay with Gp120 [1] and in the assay with Gp120 [2] were 10.9 ng/mL and 33.8 ng/mL, respectively.

B15: M78K2K Rx Direct (other)
chain: B9 chain with K7R, Q79K, K100R
modifications: chain 1 pos 79: Lys carrying 2,000 MW PEG by NHS-ester amine coupling, written K. It is the only lysine in the chain. At least one PEG per dimer. The exact site and occupancy were not measured.
As to B15, the midpoint of the response with Gp120 [3], the EC50, lay at 0.332 ng/mL.

B16: M78K 20K (other)
chain: B9 chain with K7R, Q79K, K100R
modifications: chain 1 pos 79: Lys carrying 20,000 MW PEG by NHS-ester amine coupling, written K. It is the only lysine in the chain. At least one PEG per dimer. The exact site and occupancy were not measured.
For the molecule B16, the results for the concentration for a half-maximal effect (EC50) with Gp120 [1] and with Gp120 [2] were 19.2 ng/mL and 304 ng/mL, respectively.
